The text below walks through data of FireProtDB (doi:10.1021/bi9929958).

B1: Superoxide dismutase [Mn], mitochondrial, P04179 (parent)
chain: MLSRAVCGTSRQLAPVLGYLGSRQKHSLPDLPYDYGALEPHINAQIMQLHHSKHHAAYVNNLNVTEEKYQEALAKGDVTAQIALQPALKFNGGGHINHSIFWTNLSPNGGGEPKGELLEAIKRDFGSFDKFKEKLTAASVGVQGSGWGWLGFNKERGHLQIAACPNQDPLQGTTGLIPLLGIDVWEHAYYLQYKNVRPDYLKAIWNVINWENVTERYMACKK

Variants of B1 are the subject of the data set. Particulars: Homo sapiens; pH 7.8; Thermal; DSC; Potassium phosphate 20 mM; reversible: yes; structure 1N0J; whole UniProt chain shown.

For MLSRAVCGTSRQLAPVLGYLGSRQKHSLPDLPYDYGALEPHINAQIMQLHHSKHHAAYVNNLNVTEEKYQEALAKGDVTAQIALQPALKFNGGGHINHSIFWTNLSPNGGGEPKGELLEAIKRDFGSFDKFKEKLTAASVGVQGSGWGWLGFNKERGHLQIAACPNEDPLQGTTGLIPLLGIDVWEHAYYLQYKNVRPDYLKAIWNVINWENVTERYMACKK [Q167E], the Tm – broadly, the temperature at which the thermal transition is half complete – amounted to 103 °C and the “change of melting temperature, mutant - wild type (higher = more stable)” value amounted to 14.1 °C.
For the variant MLSRAVCGTSRQLAPVLGYLGSRQKHSLPDLPYDYGALEPHINAQIMQLHHSKHHAAYVNNLNVTEEKYQEALAKGDVTAQIALQPALKFNGGGHINHSIFWTNLSPNGGGEPKGELLEAIKRDFGSFDKFKEKLTAASVGVQGSGWGWLGFNKERGHLQIAACPNADPLQGTTGLIPLLGIDVWEHAYYLQYKNVRPDYLKAIWNVINWENVTERYMACKK [Q167A], the Tm was 79.8 °C and the “change of melting temperature, mutant - wild type (higher = more stable)” value is -9.1 °C.
Taken in the same sequence, the figures for MLSRAVCGTSRQLAPVLGYLGSRQKHSLPDLPYDYGALEPHINAQIMQLHHSKHHAAYVNNLNVTEEKYQEALAKGDVTAQIALQPALKFNGGGHINHSIFWTNLSPNGGGEPKGELLEAIKRDFGSFDKFKEKLTAASVGVQGSGWGWLGFNKERGHLQIAACPNVDPLQGTTGLIPLLGIDVWEHAYYLQYKNVRPDYLKAIWNVINWENVTERYMACKK [Q167V] were 68.2 °C and -20.7 °C.
Taken in the same sequence, the figures for MLSRAVCGTSRQLAPVLGYLGSRQKHSLPDLPYDYGALEPHINAQIMQLHHSKHHAAYVNNLNVTEEKYQEALAKGDVTAQIALQPALKFNGGGHINHSIFWTNLSPNGGGEPKGELLEAIKRDFGSFDKFKEKLTAASVGVQGSGWGWLGFNKERGHLQIAACPNHDPLQGTTGLIPLLGIDVWEHAYYLQYKNVRPDYLKAIWNVINWENVTERYMACKK [Q167H] were 88.9 °C and 0 °C.
Taken in the same sequence, the figures for MLSRAVCGTSRQLAPVLGYLGSRQKHSLPDLPYDYGALEPHINAQIMQLHHSKHHAAYVNNLNVTEEKYQEALAKGDVTAQIALQPALKFNGGGHINHSIFWTNLSPNGGGEPKGELLEAIKRDFGSFDKFKEKLTAASVGVQGSGWGWLGFNKERGHLQIAACPNSDPLQGTTGLIPLLGIDVWEHAYYLQYKNVRPDYLKAIWNVINWENVTERYMACKK [Q167S] were 94.9 °C and 6 °C.
